The Human Domainome abundance scans (Beltran et al. 2025)

B1: POU domain, class 3, transcription factor 1, residues 247 to 324; numbered along this chain, Q03052 (parent)
chain: EDAPSSDDLEQFAKQFKQRRIKLGFTQADVGLALGTLYGNVFSQTTICRFEALQLSFKNMCKLKPLLNKWLEETDSSS

Variants of: B1
Test: abundance fitness (aPCA) (normalised: wild type 0, dead -1); higher = more abundant; growth selection in yeast, the domain comes from the species named
Conditions: Homo sapiens

Abundance fitness, by site and new letter:
L53: Y -0.112 | K -0.135 | W -0.478 | D -0.646 | P -0.759 | I 0.064 | H -0.111 | Q -0.009 | F -0.256 | N 0.319 | T -0.336 | S 0.051 | A 0.042 | E -0.494 | V -0.055 | R -0.052
K58: I -0.045 | E 0.031 | Q -0.012 | V -0.272 | T 0.021 | P 0.13 | F -0.433 | R -0.142 | C -0.53 | L -0.347 | S -0.152 | H -0.07 | D -0.185 | G -0.074 | W -0.303 | M -0.024 | A -0.096
R49: W 0.051
M60: V -0.701 | W -0.826 | C -0.604 | Q -1.05 | I -0.811 | N 0.011 | P -1.18 | R -0.826 | G -0.673 | T -0.396 | K -0.09 | Y 0.109 | S -0.448 | L -0.256 | E -0.948 | A -0.244
L66: Y 0.053 | A -0.226 | R -0.504 | F -0.031 | P -0.644 | Q -0.4 | G -0.78 | D -0.822 | V -0.18 | K -0.299 | S -0.767 | I 0.035 | E -0.936 | M 0.162 | W -0.33
F57: K 0.005 | W -0.127 | C -0.394 | H 0.031 | V -0.144 | Q 0.015 | A -0.142 | I -0.273 | R -0.012 | D -0.063 | S -0.152 | Y 0.37 | G -0.275 | M -0.048 | P -0.014 | T -0.047 | L 0.003
F50: N -0.874 | L -0.718 | D -0.993 | K -0.903 | M -0.597 | V -0.561 | C -0.943 | H -1.09 | Y -0.089 | P -0.484 | G -0.736 | W -0.742 | E -0.299 | Q -0.498 | S -0.802 | A -0.826 | R -0.785 | I -0.556
L55: P -0.867 | G -0.514 | C -0.064 | E -0.438 | W -0.764 | K -0.535 | H -0.359 | Y -0.46 | D -0.479 | Q -0.645 | N -0.2 | F -0.311 | A -0.54 | M -0.132 | V -0.45 | T -0.746 | S -0.323
Q54: R -0.195 | H -0.035 | T -0.145 | A -0.089 | N -0.187 | K -0.098 | E 0.011 | F -0.858 | L -0.376 | V -0.497 | I -0.316 | W -0.669 | P -0.62 | C -0.441
K64: C -0.38 | Y -0.564 | M -0.042 | R 0.002 | N -0.334 | E -0.564 | V -0.164 | D -0.653 | T -0.401 | H -0.126 | I -0.814 | F -0.562 | L -0.511 | Q -0.009 | P -0.643 | A -0.199 | S -0.405 | G -0.911
A52: H -0.141 | Q 0.021 | D 0.041 | P -0.929 | G -0.156 | W -0.728 | L -0.275 | S 0.036 | C -0.362 | M -0.341 | R -0.001 | I -0.56 | V -1.02 | N 0.23 | K 0.163
L67: V -0.563 | P -0.613 | H -0.04
